T1: GR (Rattus norvegicus, UniProt P06536)
T1 construct: plus VP16 fused to the indicated full length receptors; expressed in transfected cells; host or cells: CV-1
T1 sequence (P06536 1-795): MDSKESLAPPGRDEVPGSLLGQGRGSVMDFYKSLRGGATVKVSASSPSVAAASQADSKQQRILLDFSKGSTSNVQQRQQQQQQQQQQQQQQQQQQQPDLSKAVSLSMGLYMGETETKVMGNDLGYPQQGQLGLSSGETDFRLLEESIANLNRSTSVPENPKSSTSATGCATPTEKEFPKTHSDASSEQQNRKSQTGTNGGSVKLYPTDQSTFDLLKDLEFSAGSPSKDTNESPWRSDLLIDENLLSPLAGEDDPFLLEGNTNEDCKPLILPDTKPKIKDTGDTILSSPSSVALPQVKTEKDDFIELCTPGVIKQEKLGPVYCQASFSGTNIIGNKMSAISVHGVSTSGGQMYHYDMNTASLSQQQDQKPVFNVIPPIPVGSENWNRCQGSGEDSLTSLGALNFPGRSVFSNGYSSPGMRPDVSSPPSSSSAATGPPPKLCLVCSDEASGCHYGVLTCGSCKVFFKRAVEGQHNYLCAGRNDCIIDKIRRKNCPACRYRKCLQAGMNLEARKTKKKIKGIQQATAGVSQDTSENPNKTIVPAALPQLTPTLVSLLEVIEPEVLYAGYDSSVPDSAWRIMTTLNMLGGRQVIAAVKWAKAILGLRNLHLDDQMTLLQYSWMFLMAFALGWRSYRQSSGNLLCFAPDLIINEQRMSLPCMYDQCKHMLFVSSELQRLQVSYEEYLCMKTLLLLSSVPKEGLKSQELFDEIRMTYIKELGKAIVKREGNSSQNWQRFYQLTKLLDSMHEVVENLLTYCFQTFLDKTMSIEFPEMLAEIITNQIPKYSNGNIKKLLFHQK

T2: RXR α (Homo sapiens, UniProt P19793)
T2 construct: plus VP16 fused to the indicated full length receptors; expressed in transfected cells; host or cells: CV-1
T2 sequence (P19793 1-462): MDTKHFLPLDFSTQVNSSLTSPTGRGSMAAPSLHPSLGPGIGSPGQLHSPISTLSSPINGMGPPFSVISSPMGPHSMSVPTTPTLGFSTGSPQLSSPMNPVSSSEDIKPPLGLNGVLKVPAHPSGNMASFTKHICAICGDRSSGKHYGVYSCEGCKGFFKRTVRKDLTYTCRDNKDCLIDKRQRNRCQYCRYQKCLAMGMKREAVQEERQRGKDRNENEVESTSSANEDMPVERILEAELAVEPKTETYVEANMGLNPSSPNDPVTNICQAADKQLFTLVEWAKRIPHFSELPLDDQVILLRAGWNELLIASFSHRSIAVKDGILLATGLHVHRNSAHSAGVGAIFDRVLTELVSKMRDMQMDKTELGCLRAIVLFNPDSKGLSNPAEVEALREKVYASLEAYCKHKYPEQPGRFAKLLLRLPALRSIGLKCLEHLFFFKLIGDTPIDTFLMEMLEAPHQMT

T3: glucocorticoid receptor (GR) (Rattus norvegicus, UniProt P06536)
T3 sequence (P06536 1-795): T1 sequence (P06536 1-795)

B1: STAMP834C: STAMP fragment amino acids 834-1277, receptor interaction domain (RID) (protein)
chain: GDHPETIMEEVKIKPPKQQQTTEIHSDKLSRFTTSAEKEAKLVYSNSSSGPTATLQKIPNTHLSSVTTSDLSPGPCHHSSLSQIPSAIPSMPHQPTILLNTVSASASPCLHPGAQNIPSPTGLPRCRSGSHTIGPFSSFQSAAHIYSQKLSRPSSAKAGSCYLNKHHSGIAKTQKEGEDASLYSKRYNQSMVTAELQRLAEKQAARQYSPSSHINLLTQQVTNLNLATGIINRSSASAPPTLRPIISPSGPTWSTQSDPQAPENHSSSPGSRSLQTGGFAWEGEVENNVYSQATGVVPQHKYHPTAGSYQLQFALQQLEQQKLQSRQLLDQSRARHQAIFGSQTLPNSNLWTMNNGAGCRISSATASGQKPTTLPQKVVPPPSSCASLVPKPPPNHEQVLRRATSQKASKGSSAEGQLNGLQSSLNPAASVPITSSTDPAHTKI
B2: 6-6CL1: STAMP fragment amino acids 623-834, coactivator interaction domain (CID) (protein)
chain: ENTPKENSMKVREWNNKGGHCCKLETQELEPKFNLMQILQDNGNLSKMQARIAFSAYLQHVQIRLMKDSGGQTFSASWAAKEDEQMELVVRFLKRASNNLQHSLRMVLPSRRLALLERRRILAHQLGDFIIVYNKETEQMAEKKSKKKVEEEEEDGVNMENFQEFIRQASEAELEEVLTFYTQKNKSASVFLGTHSKISKNNNNYSDSGAKG
B3: STAMP: SRC-1 and TIF2 Associated Modulatory Protein, 1277 amino acid human polypeptide, expressed from transfected plasmid (protein)
chain: MARDLEETASSSEDEEVISQEDHPCIMWTGGCRRIPVLVFHADAILTKDNNIRVIGERYHLSYKIVRTDSRLVRSILTAHGFHEVHPSSTDYNLMWTGSHLKPFLLRTLSEAQKVNHFPRSYELTRKDRLYKNIIRMQHTHGFKVFHILPQTFLLPAEYAEFCNSYSKDRGPWIVKPVASSRGRGVYLINNPNQISLEENILVSRYINNPLLIDDFKFDVRLYVLVTSYDPLVIYLYEEGLARFATVRYDQGAKNIRNQFMHLTNYSVNKKSGDYVSCDDPEVEDYGNKWSMSAMLRYLKQEGRDTTALMAHVEDLIIKTIISAELAIATACKTFVPHRSSCFELYGFDVLIDSTLKPWLLEVNLSPSLACDAPLDLKIKASMISDMFTVVGFVCQDPAQRASTRPIYPTFESSRRNPFQKPQRCRPLSASDAEMKNLVGSAREKGPGKLGGSVLGLSMEEIKVLRRVKEENDRRGGFIRIFPTSETWEIYGSYLEHKTSMNYMLATRLFQDRMTADGAPELKIESLNSKAKLHAALYERKLLSLEVRKRRRRSSRLRAMRPKYPVITQPAEMNVKTETESEEEEEVALDNEDEEQEASQEESAGFLRENQAKYTPSLTALVENTPKENSMKVREWNNKGGHCCKLETQELEPKFNLMQILQDNGNLSKMQARIAFSAYLQHVQIRLMKDSGGQTFSASWAAKEDEQMELVVRFLKRASNNLQHSLRMVLPSRRLALLERRRILAHQLGDFIIVYNKETEQMAEKKSKKKVEEEEEDGVNMENFQEFIRQASEAELEEVLTFYTQKNKSASVFLGTHSKISKNNNNYSDSGAKGDHPETIMEEVKIKPPKQQQTTEIHSDKLSRFTTSAEKEAKLVYSNSSSGPTATLQKIPNTHLSSVTTSDLSPGPCHHSSLSQIPSAIPSMPHQPTILLNTVSASASPCLHPGAQNIPSPTGLPRCRSGSHTIGPFSSFQSAAHIYSQKLSRPSSAKAGSCYLNKHHSGIAKTQKEGEDASLYSKRYNQSMVTAELQRLAEKQAARQYSPSSHINLLTQQVTNLNLATGIINRSSASAPPTLRPIISPSGPTWSTQSDPQAPENHSSSPGSRSLQTGGFAWEGEVENNVYSQATGVVPQHKYHPTAGSYQLQFALQQLEQQKLQSRQLLDQSRARHQAIFGSQTLPNSNLWTMNNGAGCRISSATASGQKPTTLPQKVVPPPSSCASLVPKPPPNHEQVLRRATSQKASKGSSAEGQLNGLQSSLNPAASVPITSSTDPAHTKI

Columns and labels:
[1] = target: T1, GR; assay: Mammalian two-hybrid assay in CV-1 cells with VP16/GR; format: cell-based; settings: VP16/GR ± 1 μM Dex
Source text: FIGS. 6A and 6B illustrate the domains of STAMP that interact with TIF2.4 (FIG. 6A) and GR (FIG. 6B) in the mammalian two-hybrid assay. […] These CV-1 cells were also transfected with GAL fused to the indicated segments of STAMP along with the FRLuc reporter and Renilla control plasmids. After determining the relative luciferase activities as described in FIG. 2B and 2C, the average values±S.E.M. from 2-5 experiments were plotted. The average fold increase for VP16/TIF2.4 with GAL/STAMP(623-834) in FIG. 6A was 11.0±3.0 (SEM, n=5) above the VP16 control. The values in parentheses above the data bars in FIG. 6B indicate the fold increased interaction ±1 μM Dex.
(§1) These assays were conducted as described (He et al., 2002). In particular, the recommended procedure for the Mammalian Matchmaker two-hybrid assay kit (Clontech) was modified slightly by changing from a chloramphenicol acetyltransferase reporter to a Luciferase Reporter pFRLuc (Stratagene), which is under the control of five repeats of the upstream activating sequence for the binding of GAL4.

[2] = target: T2, RXR α; assay: Mammalian two-hybrid assay with VP16 full length receptor: RXRα; format: cell-based; settings: 1 μM 9-cis-retinoic acid
Method: FIG. 6C1-3 illustrate the association of STAMP with assorted steroid/nuclear receptors, including glucocorticoid receptors (GRs), progesterone receptors (PRs), androgen receptors (ARs), estrogen receptors (ER α or β), PPARγ2 receptors, thyroid receptor beta (TR), and retinoid (α) receptors (RAR α or RXR α). Triplicate samples of CV-1 cells were transfected (as described for FIG. 6B) with GAL, or GAL fused to TIF2.4 or STAMP834C, plus VP16 fused to the indicated full length receptors and incubated with the appropriate steroid (1 μM Dex, 20 nM R5020, 1 nM R1881, 0.1 μM triiodothyronine, or 1 μM estradiol, roziglitazone, or 9-cis-retinoic acid). The average relative luciferase activities of 2-3 experiments±S.E.M. were then plotted. FIG. 6C1 illustrates the effects of STAMP association upon GR, PR and AR induced expression. FIG. 6C2 illustrates the effects of STAMP association upon ERα, ERβ and PPARγ2 induced expression. FIG. 6C3 illustrates the effects of STAMP association upon TR, RARα and RXRα induced expression.
These assays were conducted as described (He et al., 2002). […]

[3] = target: T4, PCAF (Homo sapiens, UniProt Q92831); assay: Mammalian two-hybrid assay with PCAF; format: cell-based; settings: data not shown
T4 construct: expressed in transfected cells; host or cells: CV-1 (the same two-hybrid assay)
T4 sequence (Q92831 whole entry, species assumed): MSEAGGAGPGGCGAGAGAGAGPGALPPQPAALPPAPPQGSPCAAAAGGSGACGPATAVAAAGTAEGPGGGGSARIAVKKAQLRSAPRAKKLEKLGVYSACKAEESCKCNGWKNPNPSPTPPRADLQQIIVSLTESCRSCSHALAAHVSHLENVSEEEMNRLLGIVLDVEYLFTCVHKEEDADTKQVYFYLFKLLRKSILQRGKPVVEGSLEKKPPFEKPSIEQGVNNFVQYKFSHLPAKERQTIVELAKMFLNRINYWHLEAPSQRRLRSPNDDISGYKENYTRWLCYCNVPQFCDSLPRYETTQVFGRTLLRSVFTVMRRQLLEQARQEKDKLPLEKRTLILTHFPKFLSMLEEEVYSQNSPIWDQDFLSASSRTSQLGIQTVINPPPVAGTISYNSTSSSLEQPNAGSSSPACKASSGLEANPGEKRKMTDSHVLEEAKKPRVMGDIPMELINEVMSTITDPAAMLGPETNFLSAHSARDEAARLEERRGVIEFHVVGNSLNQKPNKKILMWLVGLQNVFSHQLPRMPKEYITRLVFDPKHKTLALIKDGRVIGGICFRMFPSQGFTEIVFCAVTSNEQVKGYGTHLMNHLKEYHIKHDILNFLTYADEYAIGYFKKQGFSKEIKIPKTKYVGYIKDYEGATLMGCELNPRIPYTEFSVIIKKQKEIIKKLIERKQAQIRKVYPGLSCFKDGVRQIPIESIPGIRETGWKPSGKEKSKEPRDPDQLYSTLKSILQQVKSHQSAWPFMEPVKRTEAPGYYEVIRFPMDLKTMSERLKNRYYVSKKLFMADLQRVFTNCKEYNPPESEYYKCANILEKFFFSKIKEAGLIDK
Method: as §1

[4] = target: T3, glucocorticoid receptor (GR); assay: GR-mediated induction of GREtkLUC reporter, transient transfection of CV-1 cells
Method: Triplicate samples of CV-1 cells were transiently transfected with GR (6 ng)±TIF2 (20 ng)±STAMP (160 ng) plasmids, GREtkLUC reporter, and Renilla control plasmid. […] FIG. 4B illustrates the fold changes in GR induction parameters by STAMP and TIF2. […] The fold-increase in each parameter was determined as follows: for EC50s, fold increase=[EC50]GR/[EC50]GR+factor; for partial agonist activity and fold Dex induction, fold increase=activityGR+factor/activityGR). The average fold increases were then plotted±S.E.M (n=4).
CV-1 cells were transiently transfected with GR (6 ng)±TIF2 (20 ng)±STAMP (160 ng) plasmids, GREtkLUC reporter, and Renilla control plasmid, and induced with ethanol± the indicated concentrations of Dex.
Tests were run to determine whether exogenous STAMP can modulate the EC50 of glucocorticoids and the partial agonist activity of antiglucocorticoids in the transient transfection assays where GR induced gene expression from a GREtkLUC reporter.

Row | Molecule | interaction with GR [1] | interaction with RXR α [2] | association with PCAF [3] | increase in the partial agonist activity of the antagonist Dex-Mes ([4]; STAMP alone, no exogenous coactivators, low GR, 1 μM Dex-Mes, S.E.M., n=6, P=0.023) | shift in the dose-response curve to lower steroid concentrations ([4]; STAMP alone, no exogenous coactivators, low GR, Dex, S.E.M., n=6, P=0.0074) | fold induction by 1 μM Dex, fold increase ([4]; STAMP alone, S.E.M., n=6) | total amount of gene product induced by 1 μM Dex, fold increase ([4]; STAMP alone, S.E.M., n=6) | fold induction (above basal activity) with 1 μM Dex ([4]; both with and without added TIF2 (FIG. 4B))
1 | B1 | largest agonist-induced changes | lack of interaction |  |  |  |  |  | 
2 | B2 | relative inactivity |  | negligible association |  |  |  |  | 
3 | B3 |  |  |  | 1.16±0.05 fold | 1.54±0.12 fold | 0.93±0.08 fold | 1.26±0.05 fold | increases the fold induction

— patent publication US7867500B2, “Cofactor that modulates steroid receptor activities” (The United States of America as represented by the …, priority 2004, dated 2011)
